Protein stability index data for 94 variants are collected here from the supplement of paper PMC10567573.

To fix the notation:
B1: RTN2 (parent)
chain: SERPLEDLRLRLDHLGWVARGTGS
B2: SCNN1D (parent)
chain: FYRLYQDLETHRLPCTSRCPRPCR
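Also: lentivirally expressed fusions sorted by FACS into six bins by GFP to DsRed ratio, PSI derived from sequencing read proportions per bin multiplied by bin number.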

The variants in one data set derive from B1. The experiment in a line: protein stability index of a GFP-peptide fusion (GPS, HEK-293T) (PSI 1-6); higher = more stable. The conditions noted are these: c terminus: a fixed tail appended.
As to SERPLFDLRLRLDHLGWVARGTGS [E6F], the protein stability index amounted to 2.78.
On the same count and under the same terms, the value for SERPLTDLRLRLDHLGWVARGTGS [E6T] was 1.29.
On the same count and under the same terms, the value for SERPLDDLRLRLDHLGWVARGTGS [E6D] was 1.68; that for SERPLQDLRLRLDHLGWVARGTGS [E6Q] was 2.49; that for SERPLMDLRLRLDHLGWVARGTGS [E6M] was 2.29.
Same read-out and setting: as for SERPLIDLRLRLDHLGWVARGTGS [E6I], the figure is 1.71; as for SERPLSDLRLRLDHLGWVARGTGS [E6S], 1.93; as for SERPLVDLRLRLDHLGWVARGTGS [E6V], 2.63.
Consider SERPLKDLRLRLDHLGWVARGTGS [E6K], for which the protein stability index amounted to 1.53.
The same measure, in the same setting: as for SERPLWDLRLRLDHLGWVARGTGS [E6W], the figure is 1.62; as for SERPLCDLRLRLDHLGWVARGTGS [E6C], 2.72.
Still for that read-out and setting: as for SERPLADLRLRLDHLGWVARGTGS [E6A], the figure is 2.27; as for SERPLHDLRLRLDHLGWVARGTGS [E6H], 2.34.
Consider SERPLNDLRLRLDHLGWVARGTGS [E6N], for which the protein stability index was determined as 2.24.
On the same count and under the same terms, as for SERPLPDLRLRLDHLGWVARGTGS [E6P], the figure is 2.15; as for SERPLGDLRLRLDHLGWVARGTGS [E6G], 2.35.
Regarding SYRPLEDLRLRLDHLGWVARGTGS [E2Y], the protein stability index turned out to be 2.68.
Take SNRPLEDLRLRLDHLGWVARGTGS [E2N]: the protein stability index worked out at 1.68.
Regarding SARPLEDLRLRLDHLGWVARGTGS [E2A], the protein stability index was found to be 1.99.
Take SFRPLEDLRLRLDHLGWVARGTGS [E2F]: the protein stability index was found to be 2.9.
The same measure, in the same setting: as for SGRPLEDLRLRLDHLGWVARGTGS [E2G], the figure is 2.28.
Still for that read-out and setting: as for SLRPLEDLRLRLDHLGWVARGTGS [E2L], the figure is 1.42; as for SHRPLEDLRLRLDHLGWVARGTGS [E2H], 2.19; as for SIRPLEDLRLRLDHLGWVARGTGS [E2I], 2.12.
On the same count and under the same terms, the value for SSRPLEDLRLRLDHLGWVARGTGS [E2S] was 2.43; that for SERPLEDLRLRLVHLGWVARGTGS [D13V] was 2.88.
Consider SERPLEDLRLRLGHLGWVARGTGS [D13G], for which the protein stability index was 2.87.
For SERPLEDLRLRLSHLGWVARGTGS [D13S], the protein stability index came to 3.31.
Still for that read-out and setting: as for SERPLEDLRLRLTHLGWVARGTGS [D13T], the figure is 2.34; as for SERPLEDLRLRLYHLGWVARGTGS [D13Y], 2.07; as for SERPLEDLRLRLFHLGWVARGTGS [D13F], 1.07.
The same measure, in the same setting: as for SERPLEDLRLRLCHLGWVARGTGS [D13C], the figure is 2.43.
Same read-out and setting: the value for SERPLEDLRLRLHHLGWVARGTGS [D13H] was 1.49; that for SERKLEDLRLRLDHLGWVARGTGS [P4K] was 2.38.
Consider SERVLEDLRLRLDHLGWVARGTGS [P4V], for which the protein stability index amounted to 1.26.
Still for that read-out and setting: the value for SERWLEDLRLRLDHLGWVARGTGS [P4W] was 1.73.
Still for that read-out and setting: as for SERLLEDLRLRLDHLGWVARGTGS [P4L], the figure is 1.94.
The same measure, in the same setting: as for SERDLEDLRLRLDHLGWVARGTGS [P4D], the figure is 2.53; as for SERRLEDLRLRLDHLGWVARGTGS [P4R], 1.59.
As for SERELEDLRLRLDHLGWVARGTGS [P4E], the protein stability index was 2.61.
The same measure, in the same setting: as for SERQLEDLRLRLDHLGWVARGTGS [P4Q], the figure is 2.95; as for SERFLEDLRLRLDHLGWVARGTGS [P4F], 3.68; as for SERPLEDLRFRLDHLGWVARGTGS [L10F], 3.78.
The same measure, in the same setting: as for SERPLEDLRHRLDHLGWVARGTGS [L10H], the figure is 2.38.
Still for that read-out and setting: as for SERPLEDLRNRLDHLGWVARGTGS [L10N], the figure is 2.69; as for SERPLEDLRERLDHLGWVARGTGS [L10E], 3.15.
For the variant SERPLEDLRCRLDHLGWVARGTGS [L10C], the protein stability index came out at 2.73.
Same read-out and setting: as for SERPLEDLRPRLDHLGWVARGTGS [L10P], the figure is 1.74.
On the same count and under the same terms, the value for SERPLEDLRTRLDHLGWVARGTGS [L10T] was 1.93.
The same measure, in the same setting: the value for SERPLEDLRDRLDHLGWVARGTGS [L10D] was 2.72; that for SERPLEDLRARLDHLGWVARGTGS [L10A] was 2.46.
As for SERPLEDLRMRLDHLGWVARGTGS [L10M], the protein stability index was 2.39.
Same read-out and setting: as for SERPLEDLRGRLDHLGWVARGTGS [L10G], the figure is 3.89; as for SERPLEDLRSRLDHLGWVARGTGS [L10S], 3.19; as for SERPLEDLRRRLDHLGWVARGTGS [L10R], 2.19.
For SERPLEDLRKRLDHLGWVARGTGS [L10K], the protein stability index worked out at 2.06.

The variants in the next data set derive from B2. Described as above. The conditions noted are these: c terminus: a fixed tail appended.
Regarding FYRLYQDLETHRLPCTSRCPRPSR [C23S], the protein stability index was 2.67.
The same measure, in the same setting: the value for FYRLYQDLETHRLPCTSRCPRPYR [C23Y] was 2.33.
The same measure, in the same setting: as for FYRLYQDLETHRLPCTSRCPRPDR [C23D], the figure is 3.36; as for FYRLYQDLETHRLPCTSRCPRPHR [C23H], 2.17.
As for FYRLYQDLETHRLPCTSRCPRPPR [C23P], the protein stability index was 2.43.
Still for that read-out and setting: as for FYRLYQDLETHRLPCTSRCPRPVR [C23V], the figure is 1.85; as for FYRLYQDLETHRLPCTSRCPRPTR [C23T], 2.37; as for FYRLYQDLETHRLPCTSRCPRPAR [C23A], 2.23.
With FYRLYQDLETHRLPCTSRCPRPIR [C23I], the protein stability index came to 2.11.
On to FYRLYQDLETHRLPCTSRCPRPQR [C23Q], for which the protein stability index amounted to 2.42.
Same read-out and setting: the value for FYRLYQDLETHRLPCTSRCPRPER [C23E] was 2.43.
The same measure, in the same setting: the value for FYRLYQDLETHRLPCTSRCPRPMR [C23M] was 2.41.
On to FYRLYQDLETHRLPCTSRCPRPGR [C23G], for which the protein stability index amounted to 2.65.
On to FYRLYQDLETHRLPCTSRCPRPNR [C23N], for which the protein stability index was 1.91.
The same measure, in the same setting: as for FYRLYQDLETHRLPCTSRCPRPFR [C23F], the figure is 1.71; as for FYRLYQDLETHRLPCTSRCPRYCR [P22Y], 1.32.
Turning to FYRLYQDLETHRLPCTSRCPRWCR [P22W], the protein stability index was determined as 1.13.
Same read-out and setting: the value for FYRLYQDLETHRLPCTSRCPRVCR [P22V] was 1.8; that for FYRLYQDLETHRLPCTSRCPRSCR [P22S] was 2.33; that for FYRLYQDLETHRLPCTSRCPRRCR [P22R] was 2.39.
On the same count and under the same terms, the value for FYRLYQDLETHRLPCTSRCPRTCR [P22T] was 2.25; that for FYRLYQDLETHRLPCTSRCPRPCQ [R24Q] was 2.57; that for FYRLYQDLETHRLPCTSRCPRPCS [R24S] was 2.13.
Still for that read-out and setting: as for FYRLYQDLETHRLPCTSRCPRPCF [R24F], the figure is 1.75.
Take FYRLYQDLETHRLPCTSRCPRPCK [R24K]: the protein stability index turned out to be 2.65.
On the same count and under the same terms, as for FYRLYQDLETHRLPCTSRCPRPCP [R24P], the figure is 2.35.
The same measure, in the same setting: as for FYRLYQDLETHRLPCTSRCPRPCI [R24I], the figure is 1.65.
The same measure, in the same setting: the value for FYRLYQDLETHRLPCTSRCPRPCE [R24E] was 2.14; that for FYRLYQDLETHRLPCTSRCPRPCL [R24L] was 1.6.
Take FYRLYQDLETHRLPCTSRCPRPCY [R24Y]: the protein stability index came out at 1.67.
For the variant FYRLYQDLETHRLPCTSRCPRPCD [R24D], the protein stability index stood at 1.6.
On the same count and under the same terms, as for FYRLYQDLETHRLPCTSRCPRPCW [R24W], the figure is 1.3; as for FYRLYQDLETHRLPCTSRCPRPCA [R24A], 2.2; as for FYRLYQDLETHRLPCTSRCPRPCM [R24M], 2.8.
On the same count and under the same terms, the value for FYRLYQDLETHRLPCTSRCPRPCH [R24H] was 1.69; that for FYRLYQDLETHRLPCTSRCPRPCT [R24T] was 3.87.
Still for that read-out and setting: as for FYRLYQDLETHRLPCTSRCPRPCC [R24C], the figure is 1.77; as for FYRLYQDLETHRLPCTSRCPRPCN [R24N], 1.61.
